Measurements taken from article PMC10200994.

B1: STAT5B (unphosphorylated, wild-type), fluorophore fusion [not stated] / STAT5B (unphosphorylated, wild-type), fluorophore fusion [not stated] (parent)
chain 1: MAVWIQAQQLQGEALHQMQALYGQHFPIEVRHYLSQWIESQAWDSVDLDNPQENIKATQLLEGLVQELQKKAEHQVGEDGFLLKIKLGHYATQLQNTYDRCPMELVRCIRHILYNEQRLVREANNGSSPAGSLADAMSQKHLQINQTFEELRLVTQDTENELKKLQQTQEYFIIQYQESLRIQAQFGPLAQLSPQERLSRETALQQKQVSLEAWLQREAQTLQQYRVELAEKHQKTLQLLRKQQTIILDDELIQWKRRQQLAGNGGPPEGSLDVLQSWCEKLAEIIWQNRQQIRRAEHLCQQLPIPGPVEEMLAEVNATITDIISALVTSTFIIEKQPPQVLKTQTKFAATVRLLVGGKLNVHMNPPQVKATIISEQQAKSLLKNENTRNDYSGEILNNCCVMEYHQATGTLSAHFRNMSLKRIKRSDRRGAESVTEEKFTILFESQFSVGGNELVFQVKTLSLPVVVIVHGSQDNNATATVLWDNAFAEPGRVPFAVPDKVLWPQLCEALNMKFKAEVQSNRGLTKENLVFLAQKLFNNSSSHLEDYSGLSVSWSQFNRENLPGRNYTFWQWFDGVMEVLKKHLKPHWNDGAILGFVNKQQAHDLLINKPDGTFLLRFSDSEIGGITIAWKFDSQERMFWNLMPFTTRDFSIRSLADRLGDLNYLIYVFPDRPKDEVYSKYYTPVPCESATAKAVDGYVKPQIKQVVPEFVNASADAGGGSATYMDQAPSPAVCPQAHYNMYPQNPDSVLDTDGDFDLEDTMDVARRVEELLGRPMDSQWIPHAQS
chain 2: B1 chain 1
B2: STAT5A (unphosphorylated, wild-type), fluorophore fusion [not stated] / STAT5A (unphosphorylated, wild-type), fluorophore fusion [not stated] (parent)
chain 1: MAGWIQAQQLQGDALRQMQVLYGQHFPIEVRHYLAQWIESQPWDAIDLDNPQDRAQATQLLEGLVQELQKKAEHQVGEDGFLLKIKLGHYATQLQKTYDRCPLELVRCIRHILYNEQRLVREANNCSSPAGILVDAMSQKHLQINQTFEELRLVTQDTENELKKLQQTQEYFIIQYQESLRIQAQFAQLAQLSPQERLSRETALQQKQVSLEAWLQREAQTLQQYRVELAEKHQKTLQLLRKQQTIILDDELIQWKRRQQLAGNGGPPEGSLDVLQSWCEKLAEIIWQNRQQIRRAEHLCQQLPIPGPVEEMLAEVNATITDIISALVTSTFIIEKQPPQVLKTQTKFAATVRLLVGGKLNVHMNPPQVKATIISEQQAKSLLKNENTRNECSGEILNNCCVMEYHQATGTLSAHFRNMSLKRIKRADRRGAESVTEEKFTVLFESQFSVGSNELVFQVKTLSLPVVVIVHGSQDHNATATVLWDNAFAEPGRVPFAVPDKVLWPQLCEALNMKFKAEVQSNRGLTKENLVFLAQKLFNNSSSHLEDYSGLSVSWSQFNRENLPGWNYTFWQWFDGVMEVLKKHHKPHWNDGAILGFVNKQQAHDLLINKPDGTFLLRFSDSEIGGITIAWKFDSPERNLWNLKPFTTRDFSIRSLADRLGDLSYLIYVFPDRPKDEVFSKYYTPVLAKAVDGYVKPQIKQVVPEFVNASADAGGSSATYMDQAPSPAVCPQAPYNMYPQNPDHVLDQDGEFDLDETMDVARHVEELLRRPMDSLDSRLSPPAGLFTSARGSLS
chain 2: B2 chain 1
B3: STAT1 (unphosphorylated, wild-type), fluorophore fusion [not stated] / STAT1 (unphosphorylated, wild-type), fluorophore fusion [not stated] (parent)
chain 1: MSQWYELQQLDSKFLEQVHQLYDDSFPMEIRQYLAQWLEKQDWEHAANDVSFATIRFHDLLSQLDDQYSRFSLENNFLLQHNIRKSKRNLQDNFQEDPIQMSMIIYSCLKEERKILENAQRFNQAQSGNIQSTVMLDKQKELDSKVRNVKDKVMCIEHEIKSLEDLQDEYDFKCKTLQNREHETNGVAKSDQKQEQLLLKKMYLMLDNKRKEVVHKIIELLNVTELTQNALINDELVEWKRRQQSACIGGPPNACLDQLQNWFTIVAESLQQVRQQLKKLEELEQKYTYEHDPITKNKQVLWDRTFSLFQQLIQSSFVVERQPCMPTHPQRPLVLKTGVQFTVKLRLLVKLQELNYNLKVKVLFDKDVNERNTVKGFRKFNILGTHTKVMNMEESTNGSLAAEFRHLQLKEQKNAGTRTNEGPLIVTEELHSLSFETQLCQPGLVIDLETTSLPVVVISNVSQLPSGWASILWYNMLVAEPRNLSFFLTPPCARWAQLSEVLSWQFSSVTKRGLNVDQLNMLGEKLLGPNASPDGLIPWTRFCKENINDKNFPFWLWIESILELIKKHLLPLWNDGCIMGFISKERERALLKDQQPGTFLLRFSESSREGAITFTWVERSQNGGEPDFHAVEPYTKKELSAVTFPDIIRNYKVMAAENIPENPLKYLYPNIDKDHAFGKYYSRPKEAPEPMELDGPKGTGYIKTELISVSEVHPSRLQTTDNLLPMSPEEFDEVSRIVGSVEFDSMMNTV
chain 2: B3 chain 1
B4: STAT4 (unphosphorylated, wild-type), fluorophore fusion [not stated] / STAT4 (unphosphorylated, wild-type), fluorophore fusion [not stated] (parent)
chain 1: MSQWNQVQQLEIKFLEQVDQFYDDNFPMEIRHLLAQWIENQDWEAASNNETMATILLQNLLIQLDEQLGRVSKEKNLLLIHNLKRIRKVLQGKFHGNPMHVAVVISNCLREERRILAAANMPVQGPLEKSLQSSSVSERQRNVEHKVAAIKNSVQMTEQDTKYLEDLQDEFDYRYKTIQTMDQSDKNSAMVNQEVLTLQEMLNSLDFKRKEALSKMTQIIHETDLLMNTMLIEELQDWKRRQQIACIGGPLHNGLDQLQNCFTLLAESLFQLRRQLEKLEEQSTKMTYEGDPIPMQRTHMLERVTFLIYNLFKNSFVVERQPCMPTHPQRPLVLKTLIQFTVKLRLLIKLPELNYQVKVKASIDKNVSTLSNRRFVLCGTNVKAMSIEESSNGSLSVEFRHLQPKEMKSSAGGKGNEGCHMVTEELHSITFETQICLYGLTIDLETSSLPVVMISNVSQLPNAWASIIWYNVSTNDSQNLVFFNNPPPATLSQLLEVMSWQFSSYVGRGLNSDQLHMLAEKLTVQSSYSDGHLTWAKFCKEHLPGKSFTFWTWLEAILDLIKKHILPLWIDGYVMGFVSKEKERLLLKDKMPGTFLLRFSESHLGGITFTWVDHSESGEVRFHSVEPYNKGRLSALPFADILRDYKVIMAENIPENPLKYLYPDIPKDKAFGKHYSSQPCEVSRPTERGDKGYVPSVFIPISTIRSDSTEPHSPSDLLPMSPSVYAVLRENLSPTTIETAMKSPYSAE
chain 2: B4 chain 1

Variants of: B1
Experiment: co-localization assay (quantitative fluorescence microscopy in HeLa cells)
Conditions: with STAT5B (unphosphorylated, wild-type), bait S5B-NES, test S5B-L82A, 32 cells (parent 10 cells), parent: 0.97

| screen value | Variant |
| --- | --- |
| 0.63 | chain 1 L82A |

Variants of: B2
Experiment: as above
Conditions: with STAT5A (unphosphorylated, wild-type), bait S5A-NES, test S5A-L82A, 19 cells (parent 13 cells), parent: 0.97

| screen value | Variant |
| --- | --- |
| 0.54 | chain 1 L82A |

Variants of: B3
Experiment: as above
Conditions: with STAT1 (unphosphorylated, wild-type), bait S1-NLS, test S1-F77A, 20 cells (parent 12 cells), parent: 0.98

| screen value | Variant |
| --- | --- |
| 0.64 | chain 1 F77A |

Variants of: B4
Experiment: as above
Conditions: with STAT4 (unphosphorylated, wild-type), bait S4-NES, test S4-L78S, 19 cells (parent 14 cells), parent: 0.95

| screen value | Variant |
| --- | --- |
| 0.68 | chain 1 L78S |
